What was measured:
Assay in all cases: peptide microarray, 1 µg/mL LY75_A1, anti-human IgG Alexa 647
TLTWHSAK = target: T1, TLTWHSAK
T1 peptide: TLTWHSAK
Description: (§1) The chip comprised three panels such that the experiment was performed in triplicate. […] The binding assay was performed under the following conditions:—The microarray comprising the contiguous peptides in triplicate was washed with 1 mL of binding buffer at 4° C. for 20 min. […] The array was again washed with 0.5 mL of washing buffer at 4° C. for 30 min.

NLYKIIPK = target: T2, NLYKIIPK
T2 peptide: NLYKIIPK
Description: as §1

VKYLNNLY = target: T3, VKYLNNLY
T3 peptide: VKYLNNLY
Description: as §1

YKIIPKTL = target: T4, YKIIPKTL
T4 peptide: YKIIPKTL
Description: as §1

KTLTWHSA = target: T5, KTLTWHSA
T5 peptide: KTLTWHSA
Description: as §1

KIIPKTLT = target: T6, KIIPKTLT
T6 peptide: KIIPKTLT
Description: as §1

IPKTLTWH = target: T7, IPKTLTWH
T7 peptide: IPKTLTWH
Description: as §1

IIPKTLTW = target: T8, IIPKTLTW
T8 peptide: IIPKTLTW
Description: as §1

NNLYKIIP = target: T9, NNLYKIIP
T9 peptide: NNLYKIIP
Description: as §1

YLNNLYKI = target: T10, YLNNLYKI
T10 peptide: YLNNLYKI
Description: as §1

LYKIIPKT = target: T11, LYKIIPKT
T11 peptide: LYKIIPKT
Description: as §1

LNNLYKII = target: T12, LNNLYKII
T12 peptide: LNNLYKII
Description: as §1

PKTLTWHS = target: T13, PKTLTWHS
T13 peptide: PKTLTWHS
Description: as §1

DDHFTYSR = target: T14, DDHFTYSR
T14 peptide: DDHFTYSR
Description: as §1

SRYPWHRF = target: T15, SRYPWHRF
T15 peptide: SRYPWHRF
Description: as §1

HFTYSRYP = target: T16, HFTYSRYP
T16 peptide: HFTYSRYP
Description: as §1

FTYSRYPW = target: T17, FTYSRYPW
T17 peptide: FTYSRYPW
Description: as §1

RYPWHRFP = target: T18, RYPWHRFP
T18 peptide: RYPWHRFP
Description: as §1

YPWHRFPV = target: T19, YPWHRFPV
T19 peptide: YPWHRFPV
Description: as §1

YSRYPWHR = target: T20, YSRYPWHR
T20 peptide: YSRYPWHR
Description: as §1

EAVYFHQH = target: T21, EAVYFHQH
T21 peptide: EAVYFHQH
Description: as §1

YFHQHSIL = target: T22, YFHQHSIL
T22 peptide: YFHQHSIL
Description: as §1

AVYFHQHS = target: T23, AVYFHQHS
T23 peptide: AVYFHQHS
Description: as §1

VYFHQHSI = target: T24, VYFHQHSI
T24 peptide: VYFHQHSI
Description: as §1

FTSCSERH = target: T25, FTSCSERH
T25 peptide: FTSCSERH
Description: as §1

SLCQKYSE = target: T26, SLCQKYSE
T26 peptide: SLCQKYSE
Description: as §1

QKYSEVKS = target: T27, QKYSEVKS
T27 peptide: QKYSEVKS
Description: as §1

CQKYSEVK = target: T28, CQKYSEVK
T28 peptide: CQKYSEVK
Description: as §1

RHFVSLCQ = target: T29, RHFVSLCQ
T29 peptide: RHFVSLCQ
Description: as §1

ERHFVSLC = target: T30, ERHFVSLC
T30 peptide: ERHFVSLC
Description: as §1

TSCSERHF = target: T31, TSCSERHF
T31 peptide: TSCSERHF
Description: as §1

VSLCQKYS = target: T32, VSLCQKYS
T32 peptide: VSLCQKYS
Description: as §1

LCQKYSEV = target: T33, LCQKYSEV
T33 peptide: LCQKYSEV
Description: as §1

SERHFVSL = target: T34, SERHFVSL
T34 peptide: SERHFVSL
Description: as §1

SCSERHFV = target: T35, SCSERHFV
T35 peptide: SCSERHFV
Description: as §1

B1: LY75_A1 monoclonal antibody (antibody, V domains shown)
VH: EVQLVESGGGLVKPGGSLRLSCAASGFTYSNAWMSWVRQAPGKGLEWVGRIKSKTDGGTTDYAAPVQGRFTISRDDSKNTLYLQMNSLKTEDTAVYYCTIFGVVSFDYWGQGTLVTVSS
VL: DVQMTQSPSSLSASVGDRVTITCRASQSISDYLSWYQQRPGKAPNLLIYAASNLKTGVPSRFSGSGSGTDFTLTISTLQPEDFATYYCQQSYRSPWTFGQGTKVEIKR
notes: also called LY75A1 antibody; LY75_A1 antibody
- binding result (TLTWHSAK): no binding (tested: 1 µg/mL)
- binding result (NLYKIIPK): no binding (tested: 1 µg/mL)
- binding result (VKYLNNLY): binds
- binding result (YKIIPKTL): no binding (tested: 1 µg/mL)
- binding result (KTLTWHSA): no binding (tested: 1 µg/mL)
- binding result (KIIPKTLT): no binding (tested: 1 µg/mL)
- binding result (IPKTLTWH): no binding (tested: 1 µg/mL)
- binding result (IIPKTLTW): no binding (tested: 1 µg/mL)
- binding result (NNLYKIIP): no binding (tested: 1 µg/mL)
- binding result (YLNNLYKI): binds
- binding result (LYKIIPKT): no binding (tested: 1 µg/mL)
- binding result (LNNLYKII): binds
- binding result (PKTLTWHS): no binding (tested: 1 µg/mL)
- binding result (DDHFTYSR): binds
- binding result (SRYPWHRF): binds
- binding result (HFTYSRYP): binds
- binding result (FTYSRYPW): no binding (tested: 1 µg/mL)
- binding result (RYPWHRFP): binds
- binding result (YPWHRFPV): binds
- binding result (YSRYPWHR): binds
- binding result (EAVYFHQH): binds
- binding result (YFHQHSIL): binds
- binding result (AVYFHQHS): binds
- binding result (VYFHQHSI): binds
- binding result (FTSCSERH): binds
- binding result (SLCQKYSE): no binding (tested: 1 µg/mL)
- binding result (QKYSEVKS): no binding (tested: 1 µg/mL)
- binding result (CQKYSEVK): no binding (tested: 1 µg/mL)
- binding result (RHFVSLCQ): no binding (tested: 1 µg/mL)
- binding result (ERHFVSLC): no binding (tested: 1 µg/mL)
- binding result (TSCSERHF): binds
- binding result (VSLCQKYS): binds
- binding result (LCQKYSEV): no binding (tested: 1 µg/mL)
- binding result (SERHFVSL): binds
- binding result (SCSERHFV): binds

From patent US20160257760A1 (OXFORD BIOTHERAPEUTICS, published 2016)
